Test [1] addresses T1, TauC3 (C-terminally truncated tau fragment ending at aspartate 421 of htau40) (human, UniProt P10636 1-738).
T1 construct: Generated and purified by Genscript; also called Human TauC3; recombinant TauC3 protein
Briefly: binding ELISA on coated TauC3, OD650. Put shortly: (§1)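 Binding was measured by ELISA, with absorbance read at 650 nm, on coated TauC3 antigen that Genscript made and purified. ExpiCHO cells were used to express the chimeric or humanized IgG4κ antibodies. EC50 was obtained from the antibody concentration-response.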
For orientation: In an ELISA, binding on a coated surface is turned into a signal by an enzyme label.

Test [2] deals with T1, TauC3 (C-terminally truncated tau …). Briefly: Biacore kinetics, TauC3 amine-coupled on CM5, antibody series, 1:1 global fit. The source says:
(§2) To determine the affinity of the binding interactions, a biacore kinetic assay was developed which involved immobilizing TauC3 on a CM5 chip via amine coupling and injecting a concentration series of the respective antibody over it.
For orientation: In SPR one partner is held on a chip, and binding of the other changes the refractive index at the surface.

Test [3] has the same target. Briefly: binding ELISA on coated TauC3, OD650. The procedure, abridged: as §1
This is another data set of the same source.

Test [4] has the same target. Briefly: Biacore off-rate ranking, TauC3 amine-coupled on CM5, one antibody concentration; one-phase exponential decay fit.
Test [5] shares this target. Description: SPR (Biacore) kinetics, TauC3 amine-coupled on CM5, antibody as analyte.
From the text: as §2

For test [6] the target is unchanged. Briefly: binding ELISA on coated TauC3, OD650. The procedure, abridged:
as §1
This is another data set of the same source.

Test [7] shares this target. Briefly: binding ELISA on coated TauC3, OD650. The procedure, abridged: as §1
The source holds these as a separate data set.

Test [8] shares this target. Description: Biacore off-rate ranking, TauC3 amine-coupled on CM5, one antibody concentration; two-phase decay fit, slow phase. Further details: unit not given here.
Test [9] addresses T2, full length Tau (2N4R, htau40) (human, UniProt P10636 1-758).
T2 construct: Generated and purified by Genscript; also called FL Tau; FLT
Description: Biacore, antibody captured on Protein G chip, FL Tau injected [Fig. 26B]. As for the experimental part:
To further evaluate the binding data observed on the Octet, an off-rate ranking experiment was performed on the Biacore 200 instrument. Biacore offers greater selectivity than the Octet and facilitated the immobilization of TauC3 onto a CM5 chip via amine coupling which stabilizes the antigen. This produces higher quality data with stable baselines and good reproducible responses. Once TauC3 is immobilized, one concentration (5 nM) of antibody is added, followed by a dissociation and regeneration step (Section 8.20). The off-rates were fitted using a two-phase decay model (FIG. 25B) or a one phase decay fitting only the second off-rate (FIG. 25A). The candidates were then ranked based on the off-rates obtained using the fits and compared. The data agreed with the Octet results (albeit with a different ranking order), highlighting Tau01 HMKM, HMKO, HMKP, HMKN and HMKE as the humanized variants with the slowest off-rates. The lack of binding of FL Tau to chimeric and a humanized candidate was also confirmed by Biacore by loading the antibody onto a Protein G chip and adding 250 nM FL Tau.

The target in test [10] is T1, TauC3 (C-terminally truncated tau …). Briefly: binding ELISA on coated TauC3, OD650; left table (HC variants). The procedure, abridged:
as §1

For test [11] the target is unchanged. Briefly: binding ELISA on coated TauC3, OD650; right table (HM variants). Put shortly:
as §1

For test [12] the target is unchanged. Description: binding ELISA on coated TauC3, OD650. Put shortly: as §1
The source holds these as a separate data set.

The target of test [13] is T2, full length Tau (2N4R, htau40). Description: Octet, antibody on Protein G sensor, FL Tau in solution. As for the experimental part:
The TauC3 and FL Tau antigens were generated and purified by Genscript and supplied at a concentration of 2.54 mg/ml or 0.24 mg/ml respectively. Binding of the chimeric antibody to TauC3 and FL Tau was assayed by binding ELISA. […] No non-specific binding to either antigen could be observed with an isotype confirming the binding observed is specific. Binding of the mouse and chimeric Tau01 antibodies to purified TauC3, was measured using Bio-Layer Interferometry (OctetRed96, ForteBio Section 8.12). The mouse and chimeric antibodies were assayed against a concentration series from 20 nM-0.31 nM TauC3 (FIGS. 8A and B). Both the mouse and chimeric antibodies were capable of binding to TauC3 in a concentration-dependent manner. The binding of the mouse and chimeric antibodies was also tested against FL Tau but low signals or no binding was observed (FIGS. 8C and D) confirming the binding of the antibodies is specific to TauC3.
A general note: In BLI a coated tip is dipped into the sample, and binding shifts an interference pattern.

T1 sequence (P10636 other isoform, or with tags, fused parts or gaps): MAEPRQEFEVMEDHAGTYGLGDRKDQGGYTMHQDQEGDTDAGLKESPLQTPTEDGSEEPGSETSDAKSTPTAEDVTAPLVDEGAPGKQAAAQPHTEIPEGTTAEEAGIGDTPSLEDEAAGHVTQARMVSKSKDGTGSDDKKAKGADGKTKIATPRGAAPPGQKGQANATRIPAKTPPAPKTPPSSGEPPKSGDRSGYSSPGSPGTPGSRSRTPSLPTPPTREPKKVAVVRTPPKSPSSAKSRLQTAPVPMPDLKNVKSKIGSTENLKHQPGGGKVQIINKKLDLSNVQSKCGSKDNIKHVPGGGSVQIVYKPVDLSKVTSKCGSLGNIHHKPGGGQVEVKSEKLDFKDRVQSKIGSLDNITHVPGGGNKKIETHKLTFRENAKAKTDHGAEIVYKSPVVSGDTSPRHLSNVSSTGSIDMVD
T2 sequence (P10636 other isoform, or with tags, fused parts or gaps limits assumed): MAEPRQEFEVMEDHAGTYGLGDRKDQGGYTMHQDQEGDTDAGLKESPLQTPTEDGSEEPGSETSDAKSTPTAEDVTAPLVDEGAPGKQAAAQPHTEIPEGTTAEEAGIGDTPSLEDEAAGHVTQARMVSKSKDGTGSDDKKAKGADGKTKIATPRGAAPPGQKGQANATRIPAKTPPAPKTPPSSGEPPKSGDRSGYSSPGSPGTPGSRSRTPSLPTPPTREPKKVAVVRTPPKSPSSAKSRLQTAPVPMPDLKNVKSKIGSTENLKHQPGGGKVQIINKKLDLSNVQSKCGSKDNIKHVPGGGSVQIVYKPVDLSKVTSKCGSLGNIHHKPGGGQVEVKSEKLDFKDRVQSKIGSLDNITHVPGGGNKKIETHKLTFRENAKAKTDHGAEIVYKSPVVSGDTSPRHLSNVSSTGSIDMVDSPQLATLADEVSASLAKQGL

B1: Tau01 HCKB HuG4K (antibody, V domains shown)
VH: LVQLVESGGGLVQPGGSLKLSCAASGFTFNTYAMNWVRQASGKGLEWVGRIRSKSNNYATYYAASVKGRFTISRDDSKSMAYLQMDSLKTEDTAVYYCVGGGDFWGQGTLVTVSS
VL: DIQMTQSPSSLSASVGDRVTITCRASQEISVYLSWFQQKPGKAIKRLIYGAFTLQSGVPSRFSGSRSGSEYTLTISSLQPEDFATYYCLQYVRYPWTFGGGTKVEIK
notes: human IgG4 kappa (HuG4K)
As to B1, the EC50 (commonly the concentration giving half of the maximal effect) in test [1] was determined as 0.502 nM; in test [3], 0.84 nM; in [6] it was 0.502 nM; in test [7], 0.502 nM; in test [10], 0.73 nM; in [11] it was 0.73 nM. Also, in [12], the midpoint of the response, the EC50, lay at 0.628 nM. Further, the Kd (commonly the free concentration of one partner at which half of the binding sites on the other are occupied at equilibrium, for simple one-to-one binding) in test [2] is 1.24 nM; in test [5], 1.2 nM. In addition, the values for the koff in [2] and in test [4] were 0.0249 s⁻¹ and 0.0114 s⁻¹, respectively. The kon (as a rule, the rate constant with which the complex forms) in test [2] is 2.02e+07 M⁻¹ s⁻¹. The molecule further displayed a Kslow in [8] of 0.012. In test [9], the binding result is “no binding”.

B2: MoTau01 mouse antibody (antibody, V domains shown)
VH: EVQVVESGGGLVQPKGSLKLSCAASGFTFNTYAMNWVRQAPGKGLEWVARIRSKSNNYATYYADSVKDRFTISRDDSQSMVYLQMNNLKTEDTAMYYCVGGGDFWGQGTALTVSS
VL: DIQMTQSPSSLSASLGERVSLTCRASQEISVYLSWFQQKPDGTIKRLIYGAFTLDSGVPKRFSGSRSGSDYSLTISSLESEDFADYYCLQYVRYPWTFGGGTKLEIK
notes: Mouse hybridoma antibody; also called mouse Tau01; murine Tau01
On to B2, for which, in test [13], the binding result was “no binding (tested: not printed on the sheet)”.

(Values after patent publication US20220064272A1 (TAUC3 BIOLOGICS, published 2022).)
